# Test results taken from PMC4032242.
# Molecular target: type I IFN-β receptor (human (endogenous in A549 and Daudi)) (UniProt P48551)
# UniProt P48551, sequence (P48551 27-515): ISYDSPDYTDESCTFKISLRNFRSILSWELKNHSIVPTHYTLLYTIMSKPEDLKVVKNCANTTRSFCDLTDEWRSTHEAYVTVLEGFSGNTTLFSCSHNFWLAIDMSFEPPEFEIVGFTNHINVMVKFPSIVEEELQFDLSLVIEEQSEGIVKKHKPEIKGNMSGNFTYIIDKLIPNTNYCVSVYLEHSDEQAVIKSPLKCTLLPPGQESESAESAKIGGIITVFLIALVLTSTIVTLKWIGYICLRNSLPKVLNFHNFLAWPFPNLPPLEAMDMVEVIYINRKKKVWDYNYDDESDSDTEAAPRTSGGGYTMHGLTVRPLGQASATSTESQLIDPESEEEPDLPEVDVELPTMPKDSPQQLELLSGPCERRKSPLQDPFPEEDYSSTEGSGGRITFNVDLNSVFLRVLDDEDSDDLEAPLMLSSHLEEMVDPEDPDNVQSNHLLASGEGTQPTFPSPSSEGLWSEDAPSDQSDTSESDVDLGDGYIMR
Substance,50% response in a FACS assay of IFN-inducible expression of MHC class I on the surface of A549 cells [pg/mL],"IC50 in the antiproliferative assay (Daudi cells, 48 hr) [ng/mL]","in vitro anti-viral activity (protection of A549 cells against the cytopathic effect of EMCV), average of three lots [IU/mg]","in vitro anti-viral activity (protection of A549 cells against the cytopathic effect of EMCV), average of two lots [IU/mg]",in vitro anti-viral activity (protection of A549 cells against the cytopathic effect of EMCV) [IU/mg]
R27T (rhIFN-β mutein with N-glycosylation at the 25th and 80th amino acid) (from UniProt P01574 22-187) (ligand),265,0.014,2.99e+08,–,–
R27TΔGlyc (from UniProt P01574 22-187) (ligand),359,0.022,–,2.52e+08,–
Rebif (recombinant human interferon-β 1a) (from UniProt P01574 22-187) (ligand),238,0.029,–,–,2.88e+08
